Experimental data taken from PMC7934860, “Acetylation of muscle creatine kinase negatively impacts high-energy phosphotransfer in heart failure” (JCI Insight, 2021).

Experiments:
[1] = molecular target: the molecule itself; assay: native gel or EMSA; murine cardiac lysates of sham and TAC hearts (50 mM potassium phosphate, 1 mM EDTA, 1 mM beta-mercaptoethanol, pH 7.4, 0.1% Triton X-100) on 10% native-PAGE at 4°C, blotted with anti-CKM; dimer to monomers
[2] = molecular target: the molecule itself; assay: native gel or EMSA; human rCKM, nonacetylated or in vitro acetylated, on 10% native-PAGE at 4°C (running buffer 50 mM Tris-Base, 50 mM MOPS, 0.0375% SDS, pH 7.8), blotted with anti-CKM; dimer and monomer bands by densitometry; dimer to monomers
[3] = molecular target: the molecule itself; assay: cross-linking; quantitative crosslinking MS (XL-MS) with the PIR crosslinker BDP-NHP on rCKM: control, acetylated, and Sirt2-deacetylated; links mapped to PDB 1U6R
[4] = molecular target: the molecule itself; assay: native gel or EMSA; CKM enriched from TAC-stressed mouse hearts, incubated with or without Sirt2 in vitro, then native-PAGE and anti-CKM blot; dimer to monomers

B1: Murine CKM in cardiac lysates of sham and TAC-stressed hearts (enzyme)
chain: not shown
modifications: lysine acetylation, significantly higher in the failing (TAC) hearts
notes: creatine kinase M-type (CKM), mouse (129S1/SvImJ); Sham and TAC hearts are kept as one molecule; the treatment is named in the rows; also called muscle CK isoform; source: endogenous, mouse heart lysate (sham and TAC, 12 weeks)
B1 was tested, and the “fold decrease of the dimer content, TAC against sham hearts” value [1] was 1.4 fold and the “fold increase of the monomer, TAC against sham hearts” value [1] was 2.8 fold.

B2: Human recombinant creatine kinase MM (rCKM), nonacetylated (enzyme)
chain: not shown
notes: creatine kinase M-type (muscle form, CKM), human; 381-amino acid polypeptide; The rows are of the chain with itself (MM homodimer); also called Human CK MM; CK muscle form; source: bought: R & D Systems (catalog 9070-CK) and Abcam (catalog ab73652)
For B2, the “stoichiometry N” value [2] was 2.

B3: Human recombinant CKM, in vitro acetylated and then deacetylated by Sirt2 (enzyme)
chain: not shown
modifications: acetyl-lysines removed in part by Sirt2 (lysine residues 11, 32 and 196 robustly deacetylated)
notes: creatine kinase M-type (muscle form, CKM), human; 381-amino acid polypeptide; Same protein as m2 after the in vitro deacetylation reaction; also called Sirt2-treated rCKM; Sirt2 deacetylated rCKM
For B3, the “fold increase of the homodimer crosslink K11-K11 against acetylated rCKM” value [3] was 1.3 fold and the “fold increase of the homodimer crosslink K196-K196 against acetylated rCKM” value [3] was 1.8 fold.

B4: Human recombinant CKM, in vitro acetylated (enzyme)
chain: not shown
modifications: acetyl-lysine at several lysines after in vitro acetylation (lysine residues 11, 32 and 196 are named; full list in Figure 5D)
notes: creatine kinase M-type (muscle form, CKM), human; 381-amino acid polypeptide; Same protein as m1 after in vitro acetylation; also called acetylated rCKM; in vitro acetylated rCKM
For B4, the “fold reduction of the homodimer crosslink K11-K11 against control rCKM” value [3] was 2 fold, the “fold reduction of the homodimer crosslink K196-K196 against control rCKM” value [3] was 9 fold and the “fold decrease of the dimer band against nonacetylated rCKM” value [2] was 2.1 fold. For the same protein, the “fold increase of the monomer band against nonacetylated rCKM” value [2] was 5.6 fold.

B5: CKM enriched from TAC-stressed mouse hearts, deacetylated in vitro by Sirt2 (enzyme)
chain: not shown
modifications: lysine acetylation of failing-heart CKM, reduced by Sirt2
notes: creatine kinase M-type (CKM), mouse (129S1/SvImJ); also called enriched CKM from TAC-stressed hearts + Sirt2; source: enriched from TAC mouse hearts (Blue Sepharose, Deae Sephadex A-50), then incubated with Sirt2
For B5, the “fold decrease of the monomer against enriched TAC CKM without Sirt2” value [4] was 3.5 fold.
